In the supplement of paper PMC10126150:
± gives the standard deviation of the averaged measurements.

Tested on: ATP
Assay: switch fluorescence ratio, 500 uM ATP over buffer (Cy3 cluster intensity, sum of 5 cycles each) (fold (ratio)); higher = stronger signal-on switching upon ATP binding; sequences stand for … in TCGTCGGCAGCGTCAGATGTGTATAAGAGACAGTTTTTTTTTTTTTTTTTTTTTTTTT…TC
Details: aptamer strand: ATP DNA aptamer (quencher-CACCTGGGGGAGTATTGCGGAGGAAGG + anchor), 100 nM annealed; ATP concentration: 500 uM
Outline: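 Imaging in selection buffer was followed by imaging after 15 min with 500 uM ATP at 22 °C, for Cy3-labelled switching-strand clusters annealed to 100 nM quencher-labelled ATP aptamer on a modified Illumina MiSeq flow-cell. Five of these buffer/ATP cycles ran, separated by NaOH stripping and re-annealing. The fluorescence ratio per cluster is summed target-cycle over summed buffer-cycle Cy3 intensity, averaged per switch-domain sequence; clusters outside 100-1000 RFU were removed.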
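Also: ATP exposure 15 min at 22 °C before imaging.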

| Sequence | switch fluorescence ratio |
| --- | --- |
| TGTTTTATTG | 1.01 ± 0.016 |
| TGTTTTATTT | 0.984 ± 0.018 |
| TGTTTTCGGA | 1.01 ± 0.012 |
| TGTTTTCTGT | 0.976 ± 0.04 |
| TGTTTTGTAT | 1.07 ± 0.052 |
| TGTTTTTAGG | 0.989 ± 0.023 |
| TGTTTTTATT | 1.015 ± 0.0047 |
| TGTTTTTGT | 1.18 ± 0.29 |
| TGTTTTTTCG | 0.992 ± 0.024 |
| TGTTTTTTTG | 0.983 ± 0.041 |
| TTAAAAAAGT | 1.01 ± 0.02 |
| TTAAAAACAT | 1.024 ± 0.0014 |
| TTAAAAATAA | 1.04 ± 0.073 |
| TTAAAACCCC | 1.04 ± 0.054 |
| TTAAAACGGA | 1.02 ± 0.036 |
| TTAAAACTTT | 1.02 ± 0.025 |
| TTAAAAGATT | 0.99 ± 0.075 |
| TTAAAAGGGG | 1.01 ± 0.044 |
| TTAAAAGGT | 1.04 ± 0.056 |
| TTAAAAGTGG | 1.01 ± 0.022 |
| TTAAAATACA | 1.1 ± 0.14 |
| TTAAACCTAA | 1.02 ± 0.052 |
| TTAAACCTCT | 1 ± 0.019 |

| Sequence | switch fluorescence ratio |
| --- | --- |
| TTAAACCTTG | 1.15 ± 0.042 |
| TTAAACGGGG | 1.01 ± 0.035 |
| TTAAAGCGGA | 1.01 ± 0.021 |
| TTAAAGGCAG | 0.989 ± 0.025 |
| TTAAAGGGTT | 1.04 ± 0.12 |
| TTAAAGTAGG | 0.992 ± 0.015 |
| TTAAAGTGAG | 0.99 ± 0.037 |
| TTAAAGTGAT | 0.995 ± 0.036 |
| TTAAAGTGCT | 0.984 ± 0.021 |
| TTAAAGTGGT | 0.9789 ± 0.00047 |
| TTAAAGTTAT | 0.986 ± 0.061 |
| TTAAAGTTTG | 1.06 ± 0.063 |
| TTAAATAACT | 1.12 ± 0.16 |
| TTAAATAATC | 1 ± 0.035 |
| TTAAATAGAT | 1.01 ± 0.02 |
| TTAAATAGGG | 1 ± 0.057 |
| TTAAATCCGT | 0.989 ± 0.021 |
| TTAAATGGG | 0.9799 ± 0.0063 |
| TTAAATGGTG | 1.05 ± 0.072 |
| TTAAATTATC | 1.041 ± 0.0058 |
| TTAAATTGCT | 0.991 ± 0.025 |
| TTAACACGTA | 1.2 ± 0.024 |
| TTAACCAAGA | 0.9755 ± 0.0022 |

| Sequence | switch fluorescence ratio |
| --- | --- |
| TTAACGGGAA | 1 ± 0.024 |
| TTAACGGGGA | 1.02 ± 0.017 |
| TTAACGGGGG | 0.984 ± 0.043 |
| TTAACGGTTC | 0.983 ± 0.017 |
| TTAACGTAAG | 1 ± 0.037 |
| TTAACTATGG | 1.016 ± 0.0066 |
| TTAACTGGGA | 0.998 ± 0.026 |
| TTAACTTTTT | 1.07 ± 0.053 |
| TTAAGAACAA | 1.02 ± 0.03 |
| TTAAGAACG | 1.002 ± 0.0087 |
| TTAAGAATTG | 1.04 ± 0.12 |
| TTAAGAGGTG | 1.09 ± 0.034 |
| TTAAGATTGG | 0.959 ± 0.015 |
| TTAAGCAGTT | 0.9853 ± 0.0056 |
| TTAAGCCCGG | 1.04 ± 0.066 |
| TTAAGCCTG | 1.012 ± 0.0021 |
| TTAAGCGAAT | 1.002 ± 0.0059 |
| TTAAGCGGGA | 1.01 ± 0.015 |
| TTAAGCTAGG | 1.004 ± 0.0054 |
| TTAAGGAGGT | 1.03 ± 0.099 |
| TTAAGGGAGC | 1.02 ± 0.052 |
| TTAAGGGCTT | 1.01 ± 0.021 |
| TTAAGGTAGC | 1.03 ± 0.013 |

| Sequence | switch fluorescence ratio |
| --- | --- |
| TTAAGGTATG | 0.997 ± 0.019 |
| TTAAGGTTAA | 1 ± 0.029 |
| TTAAGGTTTT | 1 ± 0.03 |
| TTAAGTAATG | 1.002 ± 0.0016 |
| TTAAGTAGGG | 1.01 ± 0.029 |
| TTAAGTAGTT | 1.02 ± 0.0099 |
| TTAAGTGCGG | 1 ± 0.02 |
| TTAAGTGCTG | 1.02 ± 0.036 |
| TTAAGTTACA | 1.05 ± 0.032 |
| TTAAGTTCGG | 1.02 ± 0.013 |
| TTAAGTTTTC | 0.979 ± 0.015 |
| TTAAGTTTTT | 0.98835 ± 0.00077 |
| TTAATAAGGT | 1.01 ± 0.035 |
| TTAATAATAT | 1 ± 0.021 |
| TTAATAGCGG | 0.997 ± 0.049 |
| TTAATAGTGA | 0.973 ± 0.021 |
| TTAATATAGG | 0.999 ± 0.011 |
| TTAATCCATG | 0.988 ± 0.011 |
| TTAATCTGCG | 1.01 ± 0.032 |
| TTAATGAATA | 1.01 ± 0.035 |
| TTAATGGGCG | 1.09 ± 0.18 |
| TTAATGGGTT | 1.09 ± 0.14 |
| TTAATGTGGA | 0.993 ± 0.046 |

| Sequence | switch fluorescence ratio |
| --- | --- |
| TTAATTATTT | 0.998 ± 0.029 |
| TTAATTGTAT | 0.992 ± 0.034 |
| TTAATTGTGT | 0.993 ± 0.0095 |
| TTAATTTAAG | 0.992 ± 0.038 |
| TTAATTTGGG | 1.01 ± 0.024 |
| TTAATTTGTG | 0.986 ± 0.017 |
| TTAATTTTAT | 0.991 ± 0.015 |
| TTACAAGGAT | 0.997 ± 0.012 |
| TTACAAGGGT | 0.973 ± 0.023 |
| TTACAATCAA | 0.999 ± 0.047 |
| TTACACGTAA | 1.31 ± 0.019 |
| TTACACTGTG | 1.001 ± 0.0054 |
| TTACAGTTCG | 1.013 ± 0.0082 |
| TTACATAAGG | 1.006 ± 0.0048 |
| TTACATCGGA | 0.982 ± 0.03 |
| TTACATTGTT | 1.06 ± 0.11 |
| TTACCAGGGG | 1.4 ± 0.25 |
| TTACCATCGG | 1.01 ± 0.024 |
| TTACCATGGA | 0.995 ± 0.0021 |
| TTACCCGGAA | 1.9 ± 0.048 |
| TTACCCTAGG | 1.14 ± 0.024 |
| TTACCGGATT | 0.993 ± 0.022 |
| TTACCGGGGG | 1.042 ± 0.0095 |

| Sequence | switch fluorescence ratio |
| --- | --- |
| TTACCGGGGT | 0.995 ± 0.035 |
| TTACCGTCGC | 1.037 ± 0.0027 |
| TTACCTACTT | 1.17 ± 0.12 |
| TTACCTTTGG | 1.005 ± 0.0087 |
| TTACGCAACC | 2.91 ± 0.58 |
| TTACGCCGTT | 0.9446 ± 0.0049 |
| TTACGCTATT | 3.4 ± 2.4 |
| TTACGGGCGC | 0.9684 ± 0.0086 |
| TTACGGGCTT | 0.989 ± 0.027 |
| TTACGGGGCC | 0.977 ± 0.049 |
| TTACGGGGTG | 1.02 ± 0.019 |
| TTACGGTAGG | 1.01 ± 0.075 |
| TTACGGTGGC | 0.989 ± 0.045 |
| TTACGTCCGT | 1.04 ± 0.02 |
| TTACGTGAGG | 1.02 ± 0.045 |
| TTACGTTAAT | 1.18 ± 0.095 |
| TTACTACCGG | 1.04 ± 0.012 |
| TTACTCGCAT | 2.3 ± 1.2 |
| TTACTCTGGG | 1.003 ± 0.0032 |
| TTACTGCGTA | 1.02 ± 0.015 |
| TTACTTATTA | 1.07 ± 0.018 |
| TTACTTGATG | 1.02 ± 0.031 |
| TTACTTGCGT | 1.06 ± 0.035 |

| Sequence | switch fluorescence ratio |
| --- | --- |
| TTACTTTAGG | 1.05 ± 0.023 |
| TTACTTTCCG | 1.11 ± 0.019 |
| TTACTTTGAA | 1.01 ± 0.029 |
| TTAGAAAAAG | 0.9811 ± 0.0052 |
| TTAGAAATGT | 1.42 ± 0.84 |
| TTAGAACAAG | 1.01 ± 0.019 |
| TTAGAACTGA | 1.02 ± 0.023 |
| TTAGAAGCCT | 1.14 ± 0.02 |
| TTAGAAGGTA | 0.995 ± 0.035 |
| TTAGAATGGG | 1.12 ± 0.14 |
| TTAGAATGTA | 0.99 ± 0.023 |
| TTAGAGAGGA | 0.987 ± 0.026 |
| TTAGAGGCAG | 0.967 ± 0.025 |
| TTAGAGGCGC | 1.035 ± 0.0095 |
| TTAGAGGGAG | 1.03 ± 0.042 |
| TTAGAGGGCA | 0.99086 ± 0.00097 |
| TTAGAGGTAA | 1.01 ± 0.019 |
| TTAGAGTACG | 1.036 ± 0.0075 |
| TTAGATAGTA | 1.01 ± 0.043 |
